Source: PMC4748816 (RNA, 2016)
Where a chain is given by its changes, count along the chain named. Numbers in names are those of the source.

B1: Loqs-3, unlabeled, purified (domain or fragment, Drosophila, UniProt Q9VJY9 368-463, looked up)
chain: HKTLKNATGKKLLKLQKTCLKNNKIDYIKLLGEIATENQFEVTYVDIEEKTFSGQFQCLVQLSTLPVGVCHGSGPTAADAQRHAAQNALEYLKIMT
B2: Loqs-3 K460E (size-exclusion chromatography) (domain or fragment, Drosophila, UniProt Q9VJY9 368-463, looked up)
chain: B1 chain with K93E
B3: Loqs dsRBD3, unlabeled, purified (domain or fragment, Drosophila)
chain: IDYIKLLGEIATENQFEVTYVDIEEKTFSGQFQCLVQLSTLPVGVCHGSGPTAADAQRHAAQNALEYLKIMT

Key:
[1] = target: Alexa Fluor 647-labeled Loqs-3 (Loqs-3^AF647), single-labeled dimer fraction (Drosophila) (UniProt Q9VJY9); experiment: SEC
[2] = target: His-tagged GFP-dmDcr1 (Drosophila) (UniProt Q9VCU9); experiment: fluorescence cross-correlation spectroscopy
Chain of His-tagged GFP-dmDcr1 (Drosophila) (Q9VCU9 whole entry): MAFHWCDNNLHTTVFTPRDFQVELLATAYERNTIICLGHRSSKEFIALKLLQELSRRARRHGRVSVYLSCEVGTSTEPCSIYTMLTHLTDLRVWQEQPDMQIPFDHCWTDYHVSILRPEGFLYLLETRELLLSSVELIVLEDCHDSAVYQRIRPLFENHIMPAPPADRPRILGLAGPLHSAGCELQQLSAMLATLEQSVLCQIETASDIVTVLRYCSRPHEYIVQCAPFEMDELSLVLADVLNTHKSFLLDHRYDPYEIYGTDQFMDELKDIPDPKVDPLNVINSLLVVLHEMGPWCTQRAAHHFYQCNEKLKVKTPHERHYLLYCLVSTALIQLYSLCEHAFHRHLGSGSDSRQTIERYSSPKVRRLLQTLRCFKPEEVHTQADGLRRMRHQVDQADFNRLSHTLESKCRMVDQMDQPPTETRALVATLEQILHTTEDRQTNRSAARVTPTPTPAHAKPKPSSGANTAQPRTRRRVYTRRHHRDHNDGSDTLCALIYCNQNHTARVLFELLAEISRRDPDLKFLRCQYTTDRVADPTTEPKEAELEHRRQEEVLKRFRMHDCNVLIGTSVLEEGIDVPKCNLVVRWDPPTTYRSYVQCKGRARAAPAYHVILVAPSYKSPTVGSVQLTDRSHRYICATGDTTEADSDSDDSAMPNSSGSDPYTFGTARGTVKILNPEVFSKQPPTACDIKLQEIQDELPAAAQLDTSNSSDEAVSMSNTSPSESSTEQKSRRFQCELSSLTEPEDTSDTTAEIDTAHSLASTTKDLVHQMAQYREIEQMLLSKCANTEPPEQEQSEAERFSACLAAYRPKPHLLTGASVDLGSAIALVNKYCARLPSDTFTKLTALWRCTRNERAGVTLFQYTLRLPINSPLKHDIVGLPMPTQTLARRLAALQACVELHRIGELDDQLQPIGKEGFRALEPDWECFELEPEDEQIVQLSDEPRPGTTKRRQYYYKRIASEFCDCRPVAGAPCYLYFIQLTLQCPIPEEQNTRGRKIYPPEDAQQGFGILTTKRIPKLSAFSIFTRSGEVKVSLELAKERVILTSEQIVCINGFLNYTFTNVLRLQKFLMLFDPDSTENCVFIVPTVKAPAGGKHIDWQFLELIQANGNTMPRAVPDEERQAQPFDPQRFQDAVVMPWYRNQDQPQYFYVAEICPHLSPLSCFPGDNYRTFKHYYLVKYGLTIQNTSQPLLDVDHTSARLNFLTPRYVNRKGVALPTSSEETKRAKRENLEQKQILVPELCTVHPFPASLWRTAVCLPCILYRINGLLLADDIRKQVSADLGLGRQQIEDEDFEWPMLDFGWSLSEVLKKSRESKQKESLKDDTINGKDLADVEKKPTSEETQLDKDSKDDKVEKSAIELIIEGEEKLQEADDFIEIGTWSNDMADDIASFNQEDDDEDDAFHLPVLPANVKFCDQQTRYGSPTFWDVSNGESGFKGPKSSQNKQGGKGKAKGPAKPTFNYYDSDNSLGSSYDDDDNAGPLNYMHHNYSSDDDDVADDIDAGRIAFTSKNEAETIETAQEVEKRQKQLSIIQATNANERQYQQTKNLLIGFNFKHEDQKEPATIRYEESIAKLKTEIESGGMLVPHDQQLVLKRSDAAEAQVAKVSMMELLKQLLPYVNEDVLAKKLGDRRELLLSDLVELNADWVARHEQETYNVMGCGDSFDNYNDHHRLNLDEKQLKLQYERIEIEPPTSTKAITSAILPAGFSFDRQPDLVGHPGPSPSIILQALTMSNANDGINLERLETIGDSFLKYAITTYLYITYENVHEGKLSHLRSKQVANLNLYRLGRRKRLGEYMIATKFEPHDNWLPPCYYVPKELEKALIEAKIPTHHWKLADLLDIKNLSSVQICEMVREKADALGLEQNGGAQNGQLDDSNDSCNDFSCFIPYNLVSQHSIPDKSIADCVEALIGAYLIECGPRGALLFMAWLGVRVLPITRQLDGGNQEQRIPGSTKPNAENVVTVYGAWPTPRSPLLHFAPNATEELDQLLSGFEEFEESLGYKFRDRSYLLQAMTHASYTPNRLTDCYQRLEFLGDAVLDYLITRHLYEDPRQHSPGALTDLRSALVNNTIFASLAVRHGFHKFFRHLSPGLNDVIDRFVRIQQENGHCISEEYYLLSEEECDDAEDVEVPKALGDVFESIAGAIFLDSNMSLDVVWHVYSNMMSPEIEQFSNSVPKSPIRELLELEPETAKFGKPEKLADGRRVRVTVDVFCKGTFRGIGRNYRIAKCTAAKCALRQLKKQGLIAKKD

[3] = target: GST-Loqs-3 (minimal linker plus dsRBD3) (Drosophila) (UniProt Q9VJY9); experiment: pull-down
His-tagged GFP-dmDcr1 = His-tagged GFP-dmDcr1 (Drosophila, UniProt Q9VCU9 1-2249); experiment: fluorescence cross-correlation spectroscopy
Chain of His-tagged GFP-dmDcr1 (Q9VCU9 whole entry): as above

SEC = target: the molecule itself; experiment: SEC

Molecule | IC50 (His-tagged GFP-dmDcr1) | Ki (His-tagged GFP-dmDcr1) | further results
Alexa Fluor 647-labeled Loqs-3 (Loqs-3^AF647), single-labeled dimer fraction (from UniProt Q9VJY9 368-463) (domain or fragment) |  |  | stoichiometry N [1]: 2
Alexa Fluor 647-labeled dsRBD3 (dsRDB3^AF647) (from UniProt Q9VJY9 392-463) (domain or fragment) |  |  | Kd [2]: 192 nM
His-tagged dmDcr1 (Drosophila Dicer1), Q9VCU9 1-2249 |  |  | fold binding against dsRBD3 alone [3]: 10 fold
B1 | 9.3 nM | 3.6 nM | 
B2 |  |  | binding result (SEC): binds
B3 | 104 nM | 43.6 nM | 
